Test system: peptide library, one residue held at a place counted from the S/T acceptor
Assay: relative phosphorylation of the sub-library (ratio to the mean residue at this position); higher = residue favoured
Outline: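 Human or orthologue kinase constructs, purified and recombinant, were incubated under kinase-specific conditions in 384-well plates with biotinylated degenerate peptide sub-libraries. Each sub-library fixed one residue at one position around a central Ser/Thr. Incubations lasted 90 min with peptides at 50 μM and 50 μM ATP spiked with γ-32P-ATP, after which spots on streptavidin membranes were phosphorimaged and quantified by densitometry. Relative sub-library phosphorylation is a ratio to the mean residue at that position.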

Chain of ERN1, construct: aa468-end, human (O75460 468-977, looked up): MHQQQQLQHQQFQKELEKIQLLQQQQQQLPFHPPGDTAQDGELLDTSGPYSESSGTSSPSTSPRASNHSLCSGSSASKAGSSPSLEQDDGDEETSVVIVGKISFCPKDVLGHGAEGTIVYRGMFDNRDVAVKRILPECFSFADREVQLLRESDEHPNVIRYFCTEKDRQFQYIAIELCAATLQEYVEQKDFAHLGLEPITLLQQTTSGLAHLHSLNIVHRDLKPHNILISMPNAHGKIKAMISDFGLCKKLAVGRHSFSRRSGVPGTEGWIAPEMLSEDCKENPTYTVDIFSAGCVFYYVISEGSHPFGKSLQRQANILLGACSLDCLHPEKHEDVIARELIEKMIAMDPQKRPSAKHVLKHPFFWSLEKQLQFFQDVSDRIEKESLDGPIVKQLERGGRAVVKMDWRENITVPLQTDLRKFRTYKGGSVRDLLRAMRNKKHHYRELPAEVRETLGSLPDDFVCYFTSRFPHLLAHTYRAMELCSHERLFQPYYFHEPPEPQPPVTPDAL
Chain of CDK8, construct: Full length*, human (P49336 whole entry, looked up): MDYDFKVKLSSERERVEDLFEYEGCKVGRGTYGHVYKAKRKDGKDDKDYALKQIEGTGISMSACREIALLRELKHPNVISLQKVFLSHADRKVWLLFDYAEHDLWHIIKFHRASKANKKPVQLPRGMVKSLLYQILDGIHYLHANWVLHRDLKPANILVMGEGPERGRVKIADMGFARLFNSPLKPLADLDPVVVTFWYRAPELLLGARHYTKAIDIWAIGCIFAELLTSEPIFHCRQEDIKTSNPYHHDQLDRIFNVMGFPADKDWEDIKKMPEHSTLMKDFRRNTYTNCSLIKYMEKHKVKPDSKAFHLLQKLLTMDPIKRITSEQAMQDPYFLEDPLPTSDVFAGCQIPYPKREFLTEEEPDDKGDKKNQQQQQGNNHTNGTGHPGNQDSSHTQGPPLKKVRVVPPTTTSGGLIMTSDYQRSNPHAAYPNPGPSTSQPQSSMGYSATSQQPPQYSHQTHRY

CDK8, construct: Full length*, human (from UniProt P49336)
relative phosphorylation
Conditions	at +1	at +2	at +3	at +4	at -1	at -2	at -3	at -4	at -5
A fixed	0.287	1.26	1.05	1.01	1.02	1.65	1.08	0.959	0.86
D fixed	0.179	0.789	0.841	1.19	0.791	0.579	0.887	1.18	1.4
E fixed	0.16	0.729	0.743	0.882	0.556	0.602	0.934	1.21	1.32
F fixed	0.26	0.84	0.734	0.893	1.03	0.43	1.04	1.1	1.33
G fixed	0.807	1.31	1.47	1.15	1.47	0.849	1.29	0.931	0.883
H fixed	0.408	1.03	1.12	1.06	0.982	0.643	0.947	1.08	1.01
I fixed	0.463	0.891	0.735	1.04	0.286	1.06	0.684	0.944	0.864
K fixed	0.239	1.11	0.649	0.698	1.03	0.309	0.592	0.842	0.747
L fixed	0.291	1.02	0.694	0.949	1.04	0.936	0.683	0.91	0.911
M fixed	0.36	1.12	1.02	0.955	1.44	1.05	1.48	1.05	0.78
N fixed	0.51	0.899	1.39	0.862	0.866	0.697	1.25	0.836	0.887
P fixed	10.9	0.801	1.91	1.09	1.37	4.62	1.23	0.923	0.896
Q fixed	0.369	1.13	1.03	0.977	1.02	0.876	1.16	0.941	0.917
R fixed	0.231	1.26	0.878	0.847	1.28	0.413	0.631	0.829	0.858
V fixed	1	0.807	0.977	1.09	0.559	1.31	0.698	0.847	0.813
W fixed	0.306	1.02	0.802	1.38	1.19	0.505	1.31	1.21	0.872
Y fixed	0.241	0.976	0.942	0.926	1.07	0.466	1.09	1.21	1.65
pThr fixed	0.423	0.473	0.694	0.882	0.312	0.668	0.74	1.11	0.898
pTyr fixed	0.43	0.934	0.886	0.851	0.758	0.614	0.745	1.13	1.11

PRKACA, construct: Full length, human (from UniProt P17612)
relative phosphorylation
Conditions	at +1	at +2	at +3	at +4	at -1	at -2	at -3	at -4	at -5
A fixed	0.926	1.32	0.946	0.869	0.966	0.373	0.581	1.11	1.08
D fixed	0.659	1.28	1.04	1.17	0.57	0.148	0.148	0.696	0.581
E fixed	0.547	0.718	0.99	1.26	0.468	0.122	0.159	0.757	0.606
F fixed	1.33	1.06	0.999	0.813	0.713	0.19	0.197	0.637	0.996
G fixed	0.81	1.09	1.06	1.1	1.26	0.308	0.503	1.24	1.19
H fixed	0.909	1.75	1.32	1.13	1.29	0.538	1.14	1.07	1.16
I fixed	1.33	0.697	0.625	0.91	0.334	0.147	0.152	0.606	0.671
K fixed	1.06	0.686	0.888	0.791	1.84	3.87	2.61	1.93	1.86
L fixed	1.41	0.719	0.919	0.885	0.874	0.227	0.152	0.751	0.715
M fixed	1.2	0.772	0.774	0.898	1.07	0.198	0.192	0.837	0.748
N fixed	0.887	1.05	1.11	1.11	1.34	0.299	0.305	0.839	0.894
P fixed	0.293	1.03	1.43	1.52	1.27	0.197	0.63	0.941	0.898
Q fixed	1.03	1.15	1.01	1.07	0.951	0.563	0.644	0.982	0.783
R fixed	1.04	0.818	1.04	0.971	1.76	9.26	8.72	2.43	2.05
V fixed	1.33	0.953	0.696	0.779	0.468	0.155	0.179	0.631	0.744
W fixed	1.27	0.905	1.16	0.999	0.775	0.208	0.324	0.772	1.13
Y fixed	0.967	0.992	1	0.732	1.04	0.199	0.373	0.771	0.892
pThr fixed	0.891	0.743	0.951	1.62	0.312	0.225	0.261	0.625	0.644
pTyr fixed	0.993	1.03	1.14	1.42	0.798	0.214	0.283	0.742	0.703

ERN1, construct: aa468-end, human (from UniProt O75460)
relative phosphorylation
Conditions	at +1	at +2	at +3	at +4	at -1	at -2	at -3	at -4	at -5
A fixed	0.993	0.597	0.656	0.755	1.28	1.07	1.06	1.11	1.07
D fixed	0.229	0.173	0.375	0.276	0.33	0.672	0.705	0.813	0.747
E fixed	0.263	0.158	0.201	0.26	0.373	0.869	0.801	0.831	0.781
F fixed	0.67	0.858	1.32	1.07	0.966	1.13	0.781	0.708	0.873
G fixed	1.15	0.662	0.791	0.892	0.804	1.26	1.59	1.29	1.25
H fixed	0.835	1.9	1.31	1.03	1.75	1.03	1.03	0.948	1.07
I fixed	0.632	1.08	0.76	0.849	0.562	0.794	0.906	0.949	1.04
K fixed	2.21	1.7	1.45	2.02	1.89	1.14	1.2	1.48	1.49
L fixed	0.643	1.21	0.973	0.766	0.658	0.857	0.854	0.87	0.97
M fixed	1.03	1.14	0.85	0.929	0.937	0.9	0.818	0.937	0.871
N fixed	1.14	0.559	0.793	0.795	0.844	0.933	0.926	1.03	0.956
P fixed	0.258	0.347	0.525	0.851	0.833	1.43	1.08	0.981	0.909
Q fixed	1.2	0.65	0.683	0.912	0.986	0.958	0.833	0.878	0.822
R fixed	3.41	2.73	3.08	2.09	1.86	1.29	1.77	1.45	1.28
V fixed	0.78	1.19	0.726	0.85	1.02	0.982	0.938	0.911	0.971
W fixed	0.775	0.963	1.19	1.45	0.74	0.724	0.813	0.924	0.926
Y fixed	0.778	1.08	1.31	1.2	1.16	0.951	0.906	0.888	0.963
pThr fixed	0.381	0.299	0.315	0.372	0.448	0.996	1.2	0.999	0.991
pTyr fixed	0.3	0.61	0.58	0.345	0.571	1.16	1	0.776	0.916

Reference: the supplement of paper PMC9876800
